Paper PMC10168641

Target: NcCAR reductase (R) domain, NcCAR^Δ1–649 (Neurospora crassa)
Assay: SAXS; R-domain in solution; best fit of the experimental data as a mixture of monomer and dimer

“NcCAR reductase (R) domain, NcCAR^Δ1–649 (domain or fragment)” was tested, and the percent dimer in solution was 69%, the percent monomer in solution was 31% and the stoichiometry N was 2.
